From patent publication US20150010932A1 (SALK INSTITUTE FOR BIOLOGICAL STUDIES, published 2015)
Changes are numbered by the printed parent chain.

B1: nLuc-linker-HA (other)
chain: MEDAKNIKKGPAPFYPLEDGTAGEQLHKAMKRYALVPGTIAFTDAHIEVDITYAEYFEMSVRLAEAMKRYGLNTNHRIVVCSENSLQFFMPVLGALFIGVAVAPANDIYNERELLNSMGISQPTVVFVSKKGLQKILNVQKKLPIIQKIIIMDSKTDYQGFQSMYTFVTSHLPPGFNEYDFVPESFDRDKTIALIMNSSGSTGLPKGVALPHRTACVRFSHARDPIFGNQIIPDTAILSVVPFHHGFGMFTTLGYLICGFRVVLMYRFEEELFLRSLQDYKIQSALLVPTLFSFFAKSTLIDKYDLSNLHEIASGGAPLSKEVGEAVAKRFHLPGIRQGYGLTETTSAILITPEGDDKPGAVGKVVPFFEAKVVDLDTGKTLGVNQRGELCVRGPMIMSGYVNNPEATNALIDKDG
notes: Expressed from pLi635, no fusion partner; also called nLuc-HA; nLuc alone; not shown: linker-HA
B2: nLuc-linker-HA-Mdm4_RING (other)
chain: MEDAKNIKKGPAPFYPLEDGTAGEQLHKAMKRYALVPGTIAFTDAHIEVDITYAEYFEMSVRLAEAMKRYGLNTNHRIVVCSENSLQFFMPVLGALFIGVAVAPANDIYNERELLNSMGISQPTVVFVSKKGLQKILNVQKKLPIIQKIIIMDSKTDYQGFQSMYTFVTSHLPPGFNEYDFVPESFDRDKTIALIMNSSGSTGLPKGVALPHRTACVRFSHARDPIFGNQIIPDTAILSVVPFHHGFGMFTTLGYLICGFRVVLMYRFEEELFLRSLQDYKIQSALLVPTLFSFFAKSTLIDKYDLSNLHEIASGGAPLSKEVGEAVAKRFHLPGIRQGYGLTETTSAILITPEGDDKPGAVGKVVPFFEAKVVDLDTGKTLGVNQRGELCVRGPMIMSGYVNNPEATNALIDKDGGGGSGGGQISYASRGYPYDVPDYAGSMEDCQNLLKPCSLCEKRPRDGNIIHGRTGHLVTCFHCARRLKKAGASCPICKKEIQLVIKVFIA
notes: range 427-490; Expressed from pLi283 and pLi285; also called nLuc-Mdm4_RING; Mdm4 RING domain
B3: cLuc-linker-FLAG-FANCL_WT (other)
chain: MSGYVNNPEATNALIDKDGWLHSGDIAYWDEDEHFFIVDRLKSLIKYKGYQVAPAELESILLQHPNIFDAGVAGLPDDDAGELPAAVVVLEHGKTMTEKEIVDYVASQVTTAKKLRGGVVFVDEVPKGLTGKLDARKIREILIKAKKGGKIAVGGGSGGGQISYASRGDYKDDDDKSGAVTEASLLRQCPLLLPQNRSKTVYEGFISAQGRDFHLRIVLPEDLQLKNARLLCSWQLRTILSGYHRIVQQRMQHSPDLMSFMMELKMLLEVALKNRQELYALPPPPQFYSSLIEEIGTLGWDKLVYADTCFSTIKLKAEDASGREHLITLKLKAKYPAESPDYFVDFPVPFCASWTPQSSLISIYSQFLAAIESLKAFWDVMDEIDEKTWVLEPEKPPRSATARRIALGNNVSINIEVDPRHPTMLPECFFLGADHVVKPLGIKLSRNIHLWDPENSVLQNLKDVLEIDFPARAILEKSDFTMDCGICYAYQLDGTIPDQVCDNSQCGQPFHQICLYEWLRGLLTSRQSFNIIFGECPYCSKPITLKMSGRKH
notes: mature; Expressed from pLi505; also called cLuc-FANCL
B4: cLuc-linker-FLAG-FANCL_C307A (other)
chain: B3 chain with C484A
notes: mature; Expressed from pLi506
B5: cLuc-linker-FLAG-Mdm4-111 (other)
chain: MSGYVNNPEATNALIDKDGWLHSGDIAYWDEDEHFFIVDRLKSLIKYKGYQVAPAELESILLQHPNIFDAGVAGLPDDDAGELPAAVVVLEHGKTMTEKEIVDYVASQVTTAKKLRGGVVFVDEVPKGLTGKLDARKIREILIKAKKGGKIAVGGGSGGGQISYASRGDYKDDDDKSGTSFSTSAQCSTSDSACRISPGQINQVRPKLPLLKILHAAGAQGEMFTVKEVMHYLGQYIMVKQLYDQQEQHMVYCGGDLLGELLGRQSFSVKDPSPLYDMLRKNLVTLAT
notes: range 2-111; Expressed from pLi354 with nLuc-p53; also called cLuc-Mdm4
B6: cLuc-linker-HA-Mdm2_RING (other)
chain: MSGYVNNPEATNALIDKDGWLHSGDIAYWDEDEHFFIVDRLKSLIKYKGYQVAPAELESILLQHPNIFDAGVAGLPDDDAGELPAAVVVLEHGKTMTEKEIVDYVASQVTTAKKLRGGVVFVDEVPKGLTGKLDARKIREILIKAKKGGKIAVGGGSGGGQISYASRGYPYDVPDYAGSSSLPLNAIEPCVICQGRPKNGCIVHGKTGHLMACFTCAKKLKKRNKPCPVCRQPIQMIVLTYFP
notes: range 428-491; Expressed from pLi283; also called cLuc-Mdm2_RING; Mdm2 RING domain
B7: cLuc-linker-HA-Mdm2_RING-C464A (other)
chain: B6 chain with C216A
notes: range 428-491; Expressed from pLi285; also called Mdm2_C464A

Tests used:
[1] = molecular target: T1, cLuc-linker-HA (Photinus pyralis (Common eastern …, UniProt P08659 398-547 = luciferase)); assay: quantitative ReBiL assay in U2OS cells (FIG. 17D)
T1 construct: Expressed from pLi635, no fusion partner; also called cLuc-HA; cLuc alone; not shown: linker-HA

[2] = molecular target: B6; assay: BiLC in cell lysate with PPI lysis buffer PLB; reference is the Mdm4_RING / Mdm2_RING_C464A pair
[3] = molecular target: T2, nLuc-linker-HA-Ube2t (UniProt Q9NPD8 1-197, limits assumed); assay: ReBiL BiLC in living U2OS cells at 35° C
T2 construct: Expressed from pLi505 and pLi506; also called nLuc-Ube2t; nLuc-Linker1-HA-Ube2t; not shown: linker-HA
T2 sequence (Q9NPD8 whole entry): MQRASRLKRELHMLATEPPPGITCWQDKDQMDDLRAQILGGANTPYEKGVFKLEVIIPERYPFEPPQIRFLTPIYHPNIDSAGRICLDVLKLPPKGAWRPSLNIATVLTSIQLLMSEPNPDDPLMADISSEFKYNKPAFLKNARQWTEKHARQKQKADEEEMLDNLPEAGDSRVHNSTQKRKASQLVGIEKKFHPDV

[4] = molecular target: T2, nLuc-linker-HA-Ube2t; assay: ReBiL BiLC in living U2OS cells at 35° C (FIG. 23C)
[5] = molecular target: TAT-PMI; assay: lysate BiLC (FIG. 13B); disruption of nLuc-p53 / cLuc-Mdm4
[6] = molecular target: B2; assay: BiLC in U2OS cell lysates, three lysis buffers
[7] = molecular target: B2; assay: BiLC in cells and in cell lysate (FIGS. 16 and 12)

Question: Does B1 bind [1]?
Answer: no binding

Question: With B2 as the binder, how does the “BiLC signal (wild type) to noise (mutant) ratio” value [2] read?
Answer: > 1000 fold

Question: Does B3 bind [3]?
Answer: binds

Question: Does B4 bind [4]?
Answer: no binding

Question: Does B5 bind [5]?
Answer: binds

Question: Does B6 bind [6]?
Answer: binds

Question: Does B7 bind [7]?
Answer: no binding
